In PMC10611767, “TudS desulfidases recycle 4-thiouridine-5’-monophosphate at a catalytic [4Fe-4S] cluster” (Communications Biology, 2023):

Legend:
Assay in all cases: purified protein
Conditions in all cases: anaerobic, normalized to 4 Fe per protein
[1] = test system: O=c1[nH]c(=S)ccn1[C@@H]1O[C@H](CO)[C@@H](O)[C@H]1O
[2] = test system: O=c1[nH]c(=S)ccn1[C@@H]1O[C@H](COP(=O)(O)O)[C@@H](O)[C@H]1O
[3] = test system: O=c1[nH]c(=S)ccn1[C@@H]1O[C@H](COP(=O)(O)OP(=O)(O)OP(=O)(O)O)[C@@H](O)[C@H]1O
O=c1[nH]ccc(=S)[nH]1 = test system: O=c1[nH]ccc(=S)[nH]1
[4] = 100 mM MOPS/KOH pH 7.3, 30 °C, anaerobically purified
[5] = 100 mM MOPS/KOH pH 7.3, anaerobically purified

TudS_A (uncultured bacterium)
Km [1, 4]: 3100 ± 600 µM | Vmax [1, 4]: 30.1 µmol/min/mg | kcat [1, 4]: 8.8 ± 0.9 s⁻¹ | kcat/Km [1, 4]: 2880 M⁻¹ s⁻¹ | Km [2, 4]: 38 ± 13 µM | Vmax [2, 4]: 1000 µmol/min/mg | kcat [2, 4]: 293 ± 44 s⁻¹ | kcat/Km [2, 4]: 7.77e+06 M⁻¹ s⁻¹ | Km [3, 4]: 100 ± 23 µM | Vmax [3, 4]: 234 µmol/min/mg | kcat [3, 4]: 68.6 ± 3.4 s⁻¹ | kcat/Km [3, 4]: 685000 M⁻¹ s⁻¹ | Km (O=c1[nH]ccc(=S)[nH]1; [4]): 240 ± 30 µM | Vmax (O=c1[nH]ccc(=S)[nH]1; [4]): 2.4 µmol/min/mg | kcat (O=c1[nH]ccc(=S)[nH]1; [4]): 0.7 ± 0.05 s⁻¹ | kcat/Km (O=c1[nH]ccc(=S)[nH]1; [4]): 2900 M⁻¹ s⁻¹

TudS_P (Pseudomonas sp. MIL19)
Km [1, 5]: 200 ± 90 µM | Vmax [1, 5]: 64.3 µmol/min/mg | kcat [1, 5]: 19.9 ± 4.7 s⁻¹ | kcat/Km [1, 5]: 103000 M⁻¹ s⁻¹ | Km [2, 5]: 20 ± 7 µM | Vmax [2, 5]: 447 µmol/min/mg | kcat [2, 5]: 138 ± 16 s⁻¹ | kcat/Km [2, 5]: 7.63e+06 M⁻¹ s⁻¹ | Km [3, 5]: 117 ± 26 µM | Vmax [3, 5]: 168 µmol/min/mg | kcat [3, 5]: 52.3 ± 2.4 s⁻¹ | kcat/Km [3, 5]: 448000 M⁻¹ s⁻¹ | Km (O=c1[nH]ccc(=S)[nH]1; [5]): 1490 ± 270 µM | Vmax (O=c1[nH]ccc(=S)[nH]1; [5]): 15.9 µmol/min/mg | kcat (O=c1[nH]ccc(=S)[nH]1; [5]): 4.93 ± 0.43 s⁻¹ | kcat/Km (O=c1[nH]ccc(=S)[nH]1; [5]): 3270 M⁻¹ s⁻¹
